To fix the notation:
B1: Azoarcus group I ribozyme (parent)
chain: GUGCCUUGCGCCGGGAAACCACGCAAGGGAUGGUGUCAAAUUCGGCGAAACCUAAGCGCCCGCCCGGGCGUAUGGCAACGCCGAGCCAAGCUUCGGCGCCUGCGCCGAUGAAGGUGUAGAGACUAGACGGCACCCACCUAAGGCAAACGCUAUGGUGAAGGCAUAGUCCAGGGAGUGGCGAAAGUCACACAAACCGG

This data set covers variants of B1. Description: reverse-splicing fitness (ratio to wild type); higher = more active; in vitro selection; Mg2+ level not given. Put shortly: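 An in vitro group I ribozyme library with randomized positions was T7-transcribed and gel-purified. In triplicate, 10 pmol RNA in EPPS pH 7.5 was reacted with 50 pmoles of a 30-nt RNA substrate for 1 h at 37 °C across several added MgCl2 levels (1–48 mM), then stopped with EDTA. Products were reverse transcribed from a substrate-complementary primer, PCR-amplified and sequenced (HiSeq 4000). Fitness is a variant's read proportion after selection over that before, normalised to wild type.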
On to C82G A111C A120G A145C C150U C169G U176G, for which the reverse-splicing fitness is 0.00541.
To C82G A111G A120U U176G belongs 0.00562.
To C82G A111U A120C C150G U176G belongs 0.00396.
To C82G A111U A120G C150A belongs 0.00998.
For C82G A120G A145G C150G C169A U176G, the reverse-splicing fitness was 0.0077.
With C82U A145U C150U C169U U176G the figure was 0.00433; with C82U A111C A120G A145C C150U U176G, 0.00354.
With C82U A111G A145U C150A C169A U176G the figure was 0.00532.
With C82U A111C A120C A145G C169A the figure was 0.0092; with C82A A111C A145G C150A C169U, 0.0111; with A111U A145U C150U, 0.88.
Consider C82A C150G C169G U176C, for which the reverse-splicing fitness is 0.00553.
In the case of C82A A111U A120G C150U C169U U176C, the reverse-splicing fitness amounted to 0.0177.
With C82A A111C A120G A145G C150G C169U U176A the figure was 0.0114; with C82A A111U A120U A145G C169A U176A, 0.00409.
Take C82U A145G C169A U176C: the reverse-splicing fitness came out at 0.0258.
To A111C A120C A145C C169G U176C belongs 0.0167; to A111G A120C A145U C169G U176A, 0.00894.
With C82U A111U A120C A145C C150G C169G the figure was 0.00637; with C82U A120G A145G C169U U176C, 0.0187.
To C82G A120G A145U C150U C169U belongs 0.0183.
Turning to C82A A120G C150G C169A U176C, the reverse-splicing fitness was found to be 0.0109.
To C82U A120U A145U U176C belongs 0.0847; to C82G A111G A145C C150U C169U, 0.0102; to C82G A111U A120U A145C C150U C169G U176A, 0.00298.
Turning to C82G A111U C150G C169A U176C, the reverse-splicing fitness was 0.0132.
Turning to C82U A111G A120U A145U C150A C169U U176C, the reverse-splicing fitness was 0.00216.
To A111U A120U A145U C150G C169A U176C belongs 0.00274; to C82A A120U A145U C150A C169U, 0.00267.
On to A111G A120U A145C C150U U176C, for which the reverse-splicing fitness was determined as 0.055.
With C82U A111G A120U A145C C150G C169G U176G the figure was 0.00197; with C82G A120G A145C C150A C169A U176G, 0.00483.
With C82A A145G C169G U176C the figure was 0.0324.
Regarding C82G A111G A120C A145G, the reverse-splicing fitness came to 0.0871.
C82G A111C A120U C150U C169G U176C: the reverse-splicing fitness is 0.00301.
For the variant C82G A111C A120G A145U C150A C169U, the reverse-splicing fitness came to 0.00666.
To C82U A145C C150G C169U U176C belongs 0.00785; to C82A A111G A120C A145U C150G C169A U176C, 0.0114; to C82G A111U A120G A145C C169A, 0.00794.
To C82U A111U A145C C150A C169A belongs 0.00809; to C82U A111C A120G C169U U176C, 0.0142.
On to A111U A120G A145U C150A C169A U176G, for which the reverse-splicing fitness was 0.00499.
For C82U A120U A145G U176G, the reverse-splicing fitness worked out at 0.0114.
As for A111G A120C C150U U176G, the reverse-splicing fitness was found to be 0.0682.
With C82U A111G A120C A145G C150U the figure was 0.042; with C82G A111C C150A C169A, 0.011.
For the variant A111C A120C A145C C169A U176G, the reverse-splicing fitness was found to be 0.00493.
Consider C82G A145G C150G C169A U176G, for which the reverse-splicing fitness was 0.00858.
With C82G A111G A120C A145G C150U C169U the figure was 0.016.
To A111G A120G A145U C150U C169G U176A belongs 0.0574; to C82U A111G A145G C150A C169G, 0.0093.
To C82U A111U A120G A145U C150G C169G U176G belongs 0.00385.
Consider C82G A111C A120U C150G C169U U176C, for which the reverse-splicing fitness amounted to 0.00676.
C82G C169G U176C: the reverse-splicing fitness was found to be 0.0235.
Consider A111U A120G A145G C150G C169U U176G, for which the reverse-splicing fitness worked out at 0.00728.
With C82G A111C A120U A145U C150A U176G the figure was 0.00269; with C82A A111U A120U A145U C150A C169U, 0.00298; with A111G A120C A145C C169A, 0.0128.
With C82G A111G A120C A145C C150G C169U U176G the figure was 0.00551.
With C150A C169G U176C the figure was 0.0327.
With A111C A120C C150U C169U U176G, the reverse-splicing fitness was determined as 0.0066.
For C82G A120G A145C C150G C169A, the reverse-splicing fitness stood at 0.0102.
To C82G A111G A120G A145C C150G C169G belongs 0.00841.
With A111G A120G A145C C150U C169U, the reverse-splicing fitness turned out to be 0.0714.
To C82G A145C C150G C169G belongs 0.00714.
With C82G A111G A120C A145C C150U C169U U176C the figure was 0.0121.
Turning to C82A A111C A120U A145C C169U U176G, the reverse-splicing fitness amounted to 0.00232.
With A111U A145C C169G U176G the figure was 0.00585; with C82U A111C A120U A145U C150U U176A, 0.00562; with C82A A145U C169G, 0.00976.
To C82A A111C A120G C150G C169U U176G belongs 0.00579.
To C82U A120C A145C C169G U176A belongs 0.0129; to A111U A120C A145U C150A C169A U176G, 0.00488; to C82G A111U A120C A145U C150G C169A U176G, 0.00704.
With A111G A120C C150G C169A U176A, the reverse-splicing fitness turned out to be 0.00551.
With C82G A111C A145G C169A U176C the figure was 0.0311; with C82G A120U A145U C169A U176G, 0.0013; with C82A A111G A145G C150G C169G, 0.00786.
To C82U A111G A120G C169A U176G belongs 0.00398.
As for C82A A111G A120C C150U C169G, the reverse-splicing fitness came to 0.00852.
To A111C A120U A145G C150G C169G U176A belongs 0.00935; to A111U A120G A145C C150U U176C, 0.0201.
To C82U A111G A120C A145C C150U C169G U176C belongs 0.00801; to A111G A120U A145U C150A C169G U176A, 0.00286.

These data come from the RNAGym collection of RNA variant scans (doi:10.1093/molbev/msab373).
